Source: patent US20140044738A1 (AstraZeneca / MedImmune, published 2014)
Positions count from the first letter of the chain named.

Tests used:
[1] = target: human PD-1, full length, expressed on the cell surface (human) (UniProt Q15116); experiment: flow cytometry: human primary CD8 T cells, CD45RA low; PD-1 as the cells express it
[2] = target: human PD-1, full length, expressed on the cell surface (human) (UniProt Q15116); experiment: flow cytometry: human primary CD8 T cells, CD45RA med; PD-1 as the cells express it
[3] = target: human PD-1, full length, expressed on the cell surface (human) (UniProt Q15116); experiment: flow cytometry: human primary CD4 T cells, CD45RA low; PD-1 as the cells express it
[4] = target: human PD-1, full length, expressed on the cell surface (human) (UniProt Q15116); experiment: flow cytometry: human primary CD4 T cells, CD45RA med; PD-1 as the cells express it
[5] = target: human PD-1, full length, expressed on the cell surface (human) (UniProt Q15116); experiment: flow cytometry: human primary CD8 T cells, CD45RA high; PD-1 as the cells express it
[6] = target: human PD-1, full length, expressed on the cell surface (human) (UniProt Q15116); experiment: flow cytometry: human primary CD4 T cells, CD45RA high; PD-1 as the cells express it
[7] = target: T1, human PD-1 (form in the assay not stated) (human, UniProt Q15116 25-167, limits assumed); experiment: method not stated
T1 construct: Used for the kinetic constants and EC50 values whose assay format is not described

[8] = target: T2, human PD-1, full length, expressed on the cell surface (human, UniProt Q15116 25-288); experiment: cell-based or functional assay
[9] = target: T1, human PD-1 (form in the assay not …); experiment: PD-1-specific binding at 0 to approximately 350 nM antibody (FIG. 20); format not stated
[10] = target: T3, human PD-1-Fc (human, UniProt Q15116 25-167, limits assumed, biotinylated in the B7-DC blocking ELISA); experiment: blocking, flow cytometry, by paragraph 273: the construct binds hPD-1-Fc and blocks its binding to hB7-H1 expressed by CHO cells (the legend paragraph 64 calls it a binding curve on CHO.hPD-1 cells; the curve falls); parameters: unit not given here
T3 construct: also called hPD-1-Fc; biotinylated PD-1-Fc

[11] = target: T4, human B7-H1, full length, expressed on the cell surface (human, UniProt Q9NZQ7 19-290); experiment: flow cytometry on CHO cells expressing human B7-H1, median fluorescence intensity
T4 construct: whole, on cells; also called CHO-hB7-H1; CHO-B7-H1 cells

[12] = target: human PD-1, full length, expressed on the cell surface (human) (UniProt Q15116); experiment: flow cytometry: CHO cells with full-length human PD-1 pre-incubated with Ctl Ig, then hB7-DC mIg + a-mIg-APC; a-mIg-APC alone MFI=10
[13] = target: T3, human PD-1-Fc; experiment: ELISA: hybridoma supernatant on immobilised rhPD-1/Fc, anti-mouse IgG
Procedure: Splenocytes from anti-PD-1 positive animals were fused with myeloma cells following standard protocol. The resulting murine hybridomas were screened for those that express high affinity human PD-1-immunoreactive monoclonal antibodies. Antibodies were additionally evaluated to determine whether they were IgG or IgM antibodies. […] Hybridoma supernatants were then placed in contact with the support, and the presence of anti-PD-1 antibody was determined using labeled anti-mouse IgG or anti-mouse IgM.

[14] = target: T2, human PD-1, full length, expressed on …; experiment: cell-based competition: CHO-hPD1 cells, antibody 30 min, then 10 µg/ml APC-labeled B7-DC-Fc; axis 100 to 0 without a unit (text: 0-0.1 mg/ml)
Procedure: A cell-based competition assay was performed by incubating 50,000 CHO-hPD1 cells for 30 minutes with anti-PD-1 antibody (present at concentrations ranging from 0-0.1 mg/ml). […] The competition was repeated at a fixed antibody concentration of 20 μg/mL (FIG. 11).

T4 sequence (Q9NZQ7 19-290): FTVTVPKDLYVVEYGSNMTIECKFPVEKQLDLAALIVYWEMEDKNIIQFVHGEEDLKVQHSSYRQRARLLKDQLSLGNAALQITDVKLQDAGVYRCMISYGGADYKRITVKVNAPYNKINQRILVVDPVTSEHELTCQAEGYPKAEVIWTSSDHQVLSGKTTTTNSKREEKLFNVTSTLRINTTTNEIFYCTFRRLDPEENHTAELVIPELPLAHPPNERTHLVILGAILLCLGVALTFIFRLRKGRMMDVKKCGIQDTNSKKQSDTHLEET
human PD-1, full length, expressed on the cell surface (human), sequence (Q15116 25-288): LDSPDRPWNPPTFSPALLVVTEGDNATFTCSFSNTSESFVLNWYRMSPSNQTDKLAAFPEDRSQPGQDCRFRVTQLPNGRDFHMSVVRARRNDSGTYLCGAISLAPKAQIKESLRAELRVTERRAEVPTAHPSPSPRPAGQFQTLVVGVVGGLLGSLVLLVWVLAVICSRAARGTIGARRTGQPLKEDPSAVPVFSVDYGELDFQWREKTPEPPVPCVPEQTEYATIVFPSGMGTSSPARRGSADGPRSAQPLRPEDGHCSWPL
T1 sequence (Q15116 25-167 limits assumed): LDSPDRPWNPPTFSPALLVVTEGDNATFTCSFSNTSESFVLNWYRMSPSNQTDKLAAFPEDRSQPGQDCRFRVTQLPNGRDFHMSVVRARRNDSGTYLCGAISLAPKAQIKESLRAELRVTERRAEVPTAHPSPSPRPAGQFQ
T2 sequence (Q15116 25-288): as the sequence (Q15116 25-288) above
T3 sequence (Q15116 25-167 limits assumed): as the sequence (Q15116 25-167 limits assumed) above

Molecule: SYNAGIS (antibody)
- number over the gate of positive cells [1]: 1.6
- number over the gate of positive cells [2]: 1.6
- number over the gate of positive cells [3]: 2.1
- number over the gate of positive cells [4]: 1.1
- number over the gate of positive cells [5]: 1.5
- number over the gate of positive cells [6]: 1.4

B1: 1H3 Construct (chimeric murine anti-human PD-1 Fab regions of antibody 1H3 and a human IgG1 Fc region) (antibody, V domains shown)
VH: EVQLVESGGGLVKPGGSLKLSCAASGFTFSDYGMHWVRQAPEKGLEWVAYISSGSYTIYYTDTVKGRFTISRDNAKNTLFLQMTSLRSEDTAMYYCARRGYGSFYEYYFDYWGQGTTLTVSS
VL: QIVLTQSPALMSASPGEKVTMTCSASSSVSYMYWYQQKPRSSPKPWIYLTSNLASGVPARFSGSGSGTSYSLTISSMEAEDAATYYCQQWSSNPFTFGSGTKLEIK
notes: also called 1H3 anti-human PD-1 chimeric antibody; chimeric 1H3
- Kd [7]: 2.19 nM
- koff [7]: 0.000161 s⁻¹
- kon [7]: 73400 M⁻¹ s⁻¹
- T cell proliferation [8]: ~7 fold
- EC50 [9]: 3 nM
- IC50 (read off the curve) [10]: ~100

B2: h1H3 Var 2 (antibody, V domains shown)
VH: B1 VH with K13Q, K19R, E42G, T61A, T63S, F80Y, T84S, S88A, M93V, L118V
VL: EIVLTQSPATLSLSPGERATLSCRASSSVSYMYWYQQKPGQAPRLLIYLASNRATGIPARFSGSGSGTDYTLTISSLEPEDFAVYYCQQWSSNPFTFGQGTKLEIK
notes: Humanized variable domains LC1_1 / HC1_2
- EC50 [9]: 3 nM

B3: h1H3 Var 3 (antibody, V domains shown)
VH: EVQLVESGGGLVQPGGSLRLSCAASGFTFSDYGMHWVRQAPGKGLEWVAYISSGSYTIYSADSVKGRFTISRDNAKNTLYLQMSSLRAEDTAVYYCARRGYGSFYEYYFDYWGQGTTVTVSS
VL: B2 VL
notes: Humanized variable domains LC1_1 / HC1_3
- EC50 [9]: 3 nM

B4: h1H3 Var 1 (antibody, V domains shown)
VH: B3 VH with A49S, Y56S, S60Y
VL: B2 VL
notes: Humanized variable domains LC1_1 / HC1_1
- EC50 [9]: 6 nM

B5: h1H3 Var 4 (antibody, V domains shown)
VH: B3 VH with A49S, Y56S, S60Y
VL: B2 VL with E1Q, R24S, A50T
notes: Humanized variable domains LC1_2 / HC1_1
- EC50 [9]: 6 nM

B6: h1H3 Var 6 (antibody, V domains shown)
VH: B3 VH
VL: B2 VL with E1Q, R24S, A50T
notes: Humanized variable domains LC1_2 / HC1_3
- EC50 [9]: 3 nM

B7: h1H3 Var 5 (antibody, V domains shown)
VH: B3 VH with S60Y
VL: B2 VL with E1Q, R24S, A50T
notes: Humanized variable domains LC1_2 / HC1_2
- EC50 [9]: 3 nM

B8: Anti-Human B7-H1 Clone 3B6 (antibody, V domains shown)
VL: DIVMTQSPAIMSASPGEKVTMTCSASSSIRYMHWYQQKPGTSPKRWISDTSKLTSGVPARFSGSGSGTSYALTISSMEAEDAATYYCHQRSSYPWTFGGGTKLEIK
V domain: EVKLQESGPSLVKPGASVKLSCKASGYTFTSYDINWVKQRPGQGLEWIGWIFPRDNNTKYNENFKGKATLTVDTSSTTAYMELHSLTSEDSAVYFCTKENWVGDFDYWGQGTTLTLSS
notes: Murine hybridoma IgG
- MFI [11]: 59600

B9: Anti-Human B7-H1 Clone 3D10 (antibody, V domains shown)
VH: EVQLQQSGPDLVTPGASVRISCQASGYTFPDYYMNWVKQSHGKSLEWIGDIDPNYGGTTYNQKFKGKAILTVDRSSSTAYMELRSLTSEDSAVYYCARGALTDWGQGTSLTVSS
VL: QIVLSQSPAILSASPGEKVTMTCRASSSVSYIYWFQQKPGSSPKPWIYATFNLASGVPARFSGSGSGTSYSLTISRVETEDAATYYCQQWSNNPLTFGAGTKLELK
notes: Murine hybridoma IgG
- MFI [11]: 53100

B10: B7-DC-Fc (Fc fusion, part only; not given: Fc part, human, UniProt Q9BQ51 20-220, looked up, part only)
chain, part: LFTVTVPKELYIIEHGSNVTLECNFDTGSHVNLGAITASLQKVENDTSPHRERATLLEEQLPLGKASFHIPQVQVRDEGQYQCIIIYGVAWDYKYLTLKVKASYRKINTHILKVPETDEVELTCQATGYPLAEVSWPNVSVPANTSHSRTPEGLYQVTSVLRLKPPPGRNFSCVFWNTHVRELTLASIDLQSQMEPRTHPT
modifications: APC-labeled or biotinylated in the cell-based assays
- MFI [12]: 2930

B11: Anti-Human B7-H1 Clone 1E12 (antibody, V domains shown)
VH: EVKLQESGPSLVKPSQTLSLTCSVTGYSITSDYWNWIRKFPGNKLEYVGYISYTGSTYYNPSLKSRISITRDTSKNQYYLQLNSVTSEDTATYYCARYGGWLSPFDYWGQGTTLTVSS
VL: DIVMTQSHKLMSTSVGDRVSITCKASQDVGTAVAWYQQKPGQSPKLLIYWASTRHTGVPDRFTGSGSGTDFTLTISNVQSEDLADYFCQQDSSYPLTFGAGTKVELK
notes: Murine hybridoma IgG
- MFI [11]: 56200

B12: Anti-Human B7-H1 Clone 1F4 (antibody, V domains shown)
VH: EVQLQESGPGLVAPSQSLSITCTVSGFSLTTYSINWIRQPPGKGLEWLGVMWAGGGTNSNSVLKSRLIISKDNSKSQVFLKMNSLQTDDTARYYCARYYGNSPYYAIDYWGQGTSVTVSS
VL: B11 VL with M4T
notes: Murine hybridoma IgG
- MFI [11]: 62000

B13: Anti-Human PD-1 Clone 1E3 (antibody, IgG1, V domains shown)
VH: EVQLQQSGPVLVKPGASVKMSCKASGYTFTDYYMNWVKQSHGKSLEWIGNINPYNGGTTYNQKFKGKATLTVDKSSRTAYMEINSLTSEDSAVYYCARGRIYDGSLDYWGQGTALTVSS
VL: DIQMTQFPSSLCASQGGKVTVTCKASQDINNYMAWYQHKPGKGPRLLIHYTSTLLSGIPSRFSGSGSGRDYSFSISNLEPEDIATYYCLQYDNLWTFGGGTKLEIK
notes: Murine hybridoma antibody, IgG1/kappa
- binding result [13]: binds
- binding result [14]: binds
